Experimental findings from patent US20110319318A1, “COVALENT MILK PROTEIN/ISOTHIOCYANATE COMPLEXES” (NESTEC S.A., priority 2009, published 2011) are described below.

Data set [1] in a line: Foaming properties (Foamscan). It counts as physicochemical. Also on record: key to foam capacity: FC = volume of foam / volume of gas injected; key to foam expansion: FE = volume of foam / volume of liquid in the foam. As to conditions: for foam capacity / foam expansion / foam liquid stability: 55 μM BLG. Here is the method: Foaming properties of samples (prepared as described in example 1) were evaluated using the standardized method proposed by Guillerme C, Loisel W, Bertrand D, Popineau Y. Study of foam stability by video image analysis: Relationship with the quantity of liquid in the foams. 1993. J Text Stud, 24, 287-302. The apparatus used was a standard version of the Foamscan™ from Teclis-ITConcept (Longessaigne, France). The principle of the method is to foam a definite quantity of protein dispersion by infusing gas into it through a glass frit of specific porosity. The gas flow and duration of the bubbling are controlled. The foam is generated on the surface of the liquid and it rises in the glass tube where its height is followed in real time by image analysis using a charged-coupled device (CCD) camera. The amount of liquid incorporated into the foam and the drainage rate are followed by measuring the conductivity as a function of time and with reference to the conductivity of the solution before bubbling, in the cuvette (with the remaining liquid phase), and at electrodes placed at different heights of the tube (Kato A, Takahashi A, Matsudomi N, Kobayashi K. Determination of foaming properties of proteins by conductivity measurements. 1983. J Food Sci, 48, 62-65).
BLG-AITC conjugates were prepared as described in example 1 and then acidified to pH 7.0 or 4.0 by adding 1M HCl. The amount of HCl added was ˜0.02% and ˜0.8% of the total volume, for neutral and acidic pH adjustment, respectively. 12 mL of each sample at both pHs, was put into 12 mL-glass vial and heated on 85° C. for 15 min, in addition to 5 min necessary for temperature in the vial to reach 85° C. The heating was done without agitation, in a temperature-controlled water-bath. Subsequently, samples were let to cool down at room temperature over 40 minutes under a mild agitation, and then put on ice until further analysis.
A volume of 20 mL of the sample solution (non-heated and heated BLG-AITC covalent complexes with the AITC to BLG molar ratio 0.5, 1 and 2, at both pH), diluted to 55 μM BLG (0.1%) was placed in the cuvette. Nitrogen at the flow rate 80 mL/min was bubbled in through the glass frit of porosity 4, creating the air bubbles with diameters between 10 and 16 μm. This flow rate allowed efficient foam formation before strong gravitational drainage occurred. The bubbling was stopped when the foam volume of 110 cm^3 was reached. Subsequently, foam capacity (FC=volume of foam/volume of gas injected) and foam expansion (FE=volume of the foam/volume of the liquid in the foam) were calculated. Foam volume and liquid stability (time for the foam to drain 50% of its initial liquid content) were followed over next 30 min at 24±1° C.

The next data set concerns the target T1, β-lactoglobulin (BLG) (Bos taurus, UniProt P02754).
T1 construct: The composition in the major whey protein fraction was 89.22% BLG; purchased Davisco Biopure, lot JE 001-3-922
T1 sequence (P02754 17-178): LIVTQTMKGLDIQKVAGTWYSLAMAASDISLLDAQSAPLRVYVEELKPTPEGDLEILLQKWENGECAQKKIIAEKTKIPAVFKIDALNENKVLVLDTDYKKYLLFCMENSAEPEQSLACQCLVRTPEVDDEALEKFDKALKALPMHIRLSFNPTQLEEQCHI
The data set is described as follows: Binding of AITC to BLG from disappearance of free -SH / -NH2 groups (Ellman's reagent, OPA). Also on record: species or system bovine. As to conditions: 25° C., pH 8.5. The method, then: A volume of 50 mL of mixtures was prepared by mixing 1 mM BLG (pH 8.5) with 200 mM AITC in Millipore® water to obtain AITC to BLG molar ratios from 0.1 to 40. Final concentration of ethanol in all sample solutions was adjusted to 5%. Samples were incubated 24 h at room temperature, under agitation (using a roller mixer SRT2, Milian, Switzerland) and protected from light. Upon incubation, contents in free sulfhydryl (—SH) and amino (—NH2) groups were determined using the Ellman's reagent [5,5′-dithio-bis(2-nitrobenzoic acid); DTNB] (Ellman G L. Tissue sulfhydryl groups. 1959. Arch Biochem Biophys, 82, 70-77) and o-phthaldialdehyde (OPA) methods (Hofmann K, Hamm R. Sulfhydryl and disulfide groups in meats. 1978. Adv Food Res, 24, 1-111), respectively.
To determine the amount of total —SH groups sample mixtures were diluted to the final BLG concentration 50 μM in 200 mM Tris-base (Tris(hydrohymethyl)-aminomethan) buffer containing 1% SDS and 8M urea at pH 8.0. 50 μL of 10 mM DTNB in ethanol was added to 3 mL of these samples and they were left 20 min at room temperature under mild agitation. The absorbance at 412 nm was measured against corresponding reagent blanks (1% ethanol in the buffer with DTNB) using an Uvikon® 810 spectrophotometer (Kontron Instruments, Basel, Switzerland). […] Therefore, absorbance values of samples were corrected for the absorbance of corresponding concentrations of AITC. Concentration of SH groups in sample solutions was assessed according to the previously made standard calibration curve. For that purpose L-Cys (Fluka, Switzerland) dissolved in the same buffer in concentration range 0.005-0.1 mM was used.
Quantitative determination of free α- and ε-amino groups was done using the approach based on the method of Goodno et al. (Goodno C. C. Swaisgood H. E., Catignani G. L.; (1981). A fluorimetric assay for available lysine in proteins. Anal. Biochem. 115(1), 203-211.) with modifications done in our laboratory. Briefly, the determination of amino groups was carried out by mixing sample solutions (0.1 mL) with 0.3% (w/v) N-acetyl-L-cystein (Fluka, Switzerland) in borate buffer pH 9.3 (9.1 mL) and 20% SDS (w/w; 0.5 mL). […] Upon incubation, mixtures were allowed to cool down at room temperature for 30 minutes before absorbance reading was done at 340 nm. […] Therefore, absorbance values of samples were corrected for the absorbance of corresponding AITC concentrations. Concentration of free (α- and ε-) amino groups in sample solutions was assessed according to the previously made standard calibration curve. […]
Assuming that one AITC can bind per one —SH group or per one —NH2 group at the time, the molar binding ratio of AITC to BLG (BAITC/BLG) was estimated from measured values for free —SH and —NH2 groups. […]

Data set [2] can be described thus: Emulsifying properties, 10% sunflower oil-in-water emulsions, stability on storage. It counts as physicochemical. The conditions noted are these: 0.25 mM AITC alone. The method, then: Emulsifying properties of BLG-AITC conjugates, non-heated and heated at pH 7.0 and 4.0 (prepared as described in examples 1 and 2), were evaluated by preparing emulsions containing 10% (w/w) of “high oleic” sunflower oil (Oleifico SABO, Manno, Switzerland). Samples containing BLG-AITC conjugates in the equimolar ratio were diluted to 0.25 mM BLG and mixed with oil in a pyrex tube (D 25 mm, V 35 mL) to a final weight of 20 g. They were pre-homogenized using an Ultra Turrax® T25 equipped with a S25N-10G dispersing head (IKA-Werke, Staufen, Germany) rotating at 16,000 rpm for 1 minute. Homogenization of emulsions was completed using an ultrasonic processor (Hielscher UP400S, power 400 W, frequency 24 kHz) and a sonotrode (diameter 7 mm, approx. length 100 mm, titanium) at room temperature for 75 seconds and 75% amplitude of the ultrasound maximal power. This emulsification time was enough to disperse the oil in small droplets and to avoid excessive heating of the sample.
Stability of emulsions to creaming and flocculation was followed over 33 days of storage at 4° C.

Setting [3] is: pH 4.0 with heating (85° C., 15 min).
The mark [4] stands for this setting: pH 7.0 with heating (85° C., 15 min).

“AITC/BLG ratio 1: BLG-AITC covalent complex, AITC to BLG molar mixing ratio 1”: the foam capacity in data set [1] (setting [3]) came to 1.17 ± 0.01; in data set [1] (pH 4.0 without heating) it was 1.18 ± 0.01; in data set [1] (setting [4]), 1.14 ± 0.02; in data set [1] (pH 7.0 without heating), 1.16 ± 0.01. Also, the foam expansion in data set [1] (setting [3]) is recorded as 7.3 ± 0.2; in data set [1] (pH 4.0 without heating) it was 7.1 ± 0.1; in data set [1] (setting [4]) it was 6.8 ± 0.1; in data set [1] (pH 7.0 without heating) it was 6.7 ± 0.1. Moreover, the foam liquid stability worked out at 190.5 ± 2.4 s in data set [1] (setting [3]), 217.5 ± 1.0 s in data set [1] (pH 4.0 without heating), 130.0 ± 4.2 s in data set [1] (setting [4]) and 159.0 ± 1.8 s in data set [1] (pH 7.0 without heating). Further, the foam volume stability entry in data set [1] (pH 7.0, with or without heat treatment, over 30 min) was “best foam stability”.

“AITC/BLG ratio 0.5: BLG-AITC covalent complex, AITC to BLG molar mixing ratio 0.5”: the foam capacity stood at 1.16 ± 0.00 in data set [1] (setting [3]), 1.18 ± 0.01 in data set [1] (pH 4.0 without heating), 1.14 ± 0.01 in data set [1] (setting [4]) and 1.16 ± 0.01 in data set [1] (pH 7.0 without heating). The foam expansion in data set [1] (setting [3]) is 7.1 ± 0.2; in data set [1] (pH 4.0 without heating), 7.1 ± 0.0; in data set [1] (setting [4]), 6.7 ± 0.1; in data set [1] (pH 7.0 without heating) it was 6.8 ± 0.1. Besides, the foam liquid stability was 200.0 ± 6.9 s in data set [1] (setting [3]), 204.5 ± 8.5 s in data set [1] (pH 4.0 without heating), 133.0 ± 4.7 s in data set [1] (setting [4]) and 152.0 ± 3.3 s in data set [1] (pH 7.0 without heating).

With “AITC/BLG ratio 2: BLG-AITC covalent complex, AITC to BLG molar mixing ratio 2”, the foam capacity in data set [1] (setting [3]) was 1.16 ± 0.01; in data set [1] (pH 4.0 without heating) it was 1.18 ± 0.01; in data set [1] (setting [4]), 1.16 ± 0.01; in data set [1] (pH 7.0 without heating) it was 1.17 ± 0.01. Also, the foam expansion in data set [1] (setting [3]) turned out to be 7.1 ± 0.2; in data set [1] (pH 4.0 without heating), 7.0 ± 0.0; in data set [1] (setting [4]), 6.7 ± 0.1; in data set [1] (pH 7.0 without heating), 6.8 ± 0.1. Besides, the foam liquid stability in data set [1] (setting [3]) is recorded as 193.0 ± 2.7 s; in data set [1] (pH 4.0 without heating), 216.3 ± 5.0 s; in data set [1] (setting [4]), 128.0 ± 3.8 s; in data set [1] (pH 7.0 without heating), 145.5 ± 3.9 s.

`C=CCN=C=S` [AITC, Allyl-isothiocyanate]: the “dissociation constant KD” value at β-lactoglobulin (BLG) (-SH group of BLG) is recorded as “very low”; at β-lactoglobulin (BLG) (amino groups of BLG), “high”. The “number of possible binding sites” value at β-lactoglobulin (BLG) (amino groups of BLG) is listed as “larger number of possible binding sites”. In addition, on β-lactoglobulin (BLG) (single free sulfhydryl group of BLG, one site binding fit), the “maximum number of saturation site (nmax)” value is recorded as 0.84±0.06. Besides, in data set [2] (10% of sunflower oil), the “ability to emulsify the oil” value was “not able to properly emulsify”. Moreover, the oiling-off entry in data set [2] (at day=0 and after 24 days of storage) is listed as “significant oiling-off”.
